Measurements taken from the supplement of paper PMC9112550, “Optimization of the antimicrobial peptide Bac7 by deep mutational scanning” (BMC Biology, 2022).

What follows are sequences tested on Escherichia coli TOP10 (assay: shrunken log2 fold change of peptide-encoding DNA abundance (4.5 h post-induction vs induction); higher = less antimicrobial activity (less host growth inhibition)). Conditions: time post-induction: 4.5 h; library: site-saturation at positions 5, 18, 19, 20.
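Also: peptides expressed intracellularly from a pBAD plasmid library in pooled LB shake-flask culture, induced with 0.3% L-arabinose, DNA abundance read by NGS, three biological replicates, DESeq2 with apeglm shrinkage.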

Which “shrunken log2 fold change” value does the source give for RRIRTRPPRLPRPRPRPLGYPRP here?
Its value is -0.213.

How did the “shrunken log2 fold change” value turn out when RRIRGRPPRLPRPRPRPIELPRP was run?
The value was -0.0084.

RRIRARPPRLPRPRPRPQKVPRP was tested. Which “shrunken log2 fold change” value did it give?
The value was 0.0196.

How did the “shrunken log2 fold change” value turn out when RRIRCRPPRLPRPRPRPQEYPRP was run?
The value was -0.399.

For RRIRPRPPRLPRPRPRPPVHPRP, which “shrunken log2 fold change” value is on record?
Its value is -0.0329.

RRIRIRPPRLPRPRPRPTRSPRP was tested. Which “shrunken log2 fold change” value did it give?
Its value is -0.00877.

How did the “shrunken log2 fold change” value turn out when RRIRMRPPRLPRPRPRPEKFPRP was run?
The value was -0.000921.

RRIRCRPPRLPRPRPRPNSVPRP was tested. Which “shrunken log2 fold change” value did it give?
Its value is -0.143.

With RRIRSRPPRLPRPRPRPIKMPRP as the sequence, how does the “shrunken log2 fold change” value read?
The value was -0.47.

Which “shrunken log2 fold change” value does the source give for RRIRTRPPRLPRPRPRPRIFPRP here?
The value was -0.158.

For RRIRQRPPRLPRPRPRPRNQPRP, which “shrunken log2 fold change” value is on record?
The value was -0.329.

Which “shrunken log2 fold change” value does the source give for RRIRWRPPRLPRPRPRPREAPRP here?
The value was 0.185.

Which “shrunken log2 fold change” value does the source give for RRIRARPPRLPRPRPRPEHNPRP here?
Its value is -0.0925.

With RRIRDRPPRLPRPRPRPERYPRP as the sequence, how does the “shrunken log2 fold change” value read?
Its value is 0.00592.

For RRIRFRPPRLPRPRPRPNRFPRP, which “shrunken log2 fold change” value is on record?
The value was -0.174.

For RRIRSRPPRLPRPRPRPVREPRP, which “shrunken log2 fold change” value is on record?
The value was 0.723.

RRIRLRPPRLPRPRPRPWSVPRP was tested. Which “shrunken log2 fold change” value did it give?
The value was -0.0834.

Which “shrunken log2 fold change” value does the source give for RRIRQRPPRLPRPRPRPEIIPRP here?
Its value is 0.0359.

For RRIRSRPPRLPRPRPRPINIPRP, which “shrunken log2 fold change” value is on record?
Its value is -0.589.

For RRIRTRPPRLPRPRPRPNMRPRP, which “shrunken log2 fold change” value is on record?
Its value is 0.33.

Which “shrunken log2 fold change” value does the source give for RRIRARPPRLPRPRPRPYHIPRP here?
The value was -0.356.

For RRIRWRPPRLPRPRPRPTYRPRP, which “shrunken log2 fold change” value is on record?
The value was 0.146.

RRIRCRPPRLPRPRPRPSAGPRP was tested. Which “shrunken log2 fold change” value did it give?
Its value is 0.194.

How did the “shrunken log2 fold change” value turn out when RRIRARPPRLPRPRPRPRASPRP was run?
The value was 0.797.

With RRIRPRPPRLPRPRPRPQRIPRP as the sequence, how does the “shrunken log2 fold change” value read?
Its value is 0.0114.

How did the “shrunken log2 fold change” value turn out when RRIRPRPPRLPRPRPRPEARPRP was run?
The value was 0.374.

For RRIRKRPPRLPRPRPRPIIGPRP, which “shrunken log2 fold change” value is on record?
The value was 0.00654.

How did the “shrunken log2 fold change” value turn out when RRIRGRPPRLPRPRPRPFPSPRP was run?
The value was 0.142.

With RRIRYRPPRLPRPRPRPAARPRP as the sequence, how does the “shrunken log2 fold change” value read?
The value was 0.0304.

With RRIRIRPPRLPRPRPRPIVDPRP as the sequence, how does the “shrunken log2 fold change” value read?
The value was -0.0819.

With RRIRDRPPRLPRPRPRPNQGPRP as the sequence, how does the “shrunken log2 fold change” value read?
Its value is 0.125.

For RRIRSRPPRLPRPRPRPGWTPRP, which “shrunken log2 fold change” value is on record?
Its value is -0.0313.

RRIRVRPPRLPRPRPRPGFVPRP was tested. Which “shrunken log2 fold change” value did it give?
The value was 0.0922.

RRIRARPPRLPRPRPRPESDPRP was tested. Which “shrunken log2 fold change” value did it give?
The value was 1.17.

For RRIRHRPPRLPRPRPRPFFLPRP, which “shrunken log2 fold change” value is on record?
The value was -0.238.

RRIRCRPPRLPRPRPRPHPLPRP was tested. Which “shrunken log2 fold change” value did it give?
The value was 0.989.

RRIRSRPPRLPRPRPRPIVLPRP was tested. Which “shrunken log2 fold change” value did it give?
The value was -0.639.

RRIRYRPPRLPRPRPRPTCTPRP was tested. Which “shrunken log2 fold change” value did it give?
Its value is -0.229.

How did the “shrunken log2 fold change” value turn out when RRIRYRPPRLPRPRPRPKYRPRP was run?
Its value is -0.0133.

For RRIRTRPPRLPRPRPRPRGAPRP, which “shrunken log2 fold change” value is on record?
The value was 0.382.

How did the “shrunken log2 fold change” value turn out when RRIRVRPPRLPRPRPRPDKHPRP was run?
Its value is -0.108.

RRIRDRPPRLPRPRPRPELNPRP was tested. Which “shrunken log2 fold change” value did it give?
The value was 1.04.

RRIRYRPPRLPRPRPRPLDPPRP was tested. Which “shrunken log2 fold change” value did it give?
Its value is -0.307.

With RRIRFRPPRLPRPRPRPGGVPRP as the sequence, how does the “shrunken log2 fold change” value read?
Its value is 0.106.

RRIRGRPPRLPRPRPRPELRPRP was tested. Which “shrunken log2 fold change” value did it give?
The value was 1.71.

For RRIRMRPPRLPRPRPRPRWTPRP, which “shrunken log2 fold change” value is on record?
Its value is 0.548.

For RRIRCRPPRLPRPRPRPYVYPRP, which “shrunken log2 fold change” value is on record?
The value was -0.834.

Which “shrunken log2 fold change” value does the source give for RRIRERPPRLPRPRPRPDYSPRP here?
The value was -1.47.

RRIRARPPRLPRPRPRPETIPRP was tested. Which “shrunken log2 fold change” value did it give?
Its value is 0.541.

Which “shrunken log2 fold change” value does the source give for RRIRQRPPRLPRPRPRPMMHPRP here?
Its value is -0.252.

How did the “shrunken log2 fold change” value turn out when RRIRNRPPRLPRPRPRPQCAPRP was run?
The value was -0.0727.

How did the “shrunken log2 fold change” value turn out when RRIRQRPPRLPRPRPRPGARPRP was run?
The value was 0.451.

Which “shrunken log2 fold change” value does the source give for RRIRYRPPRLPRPRPRPHCQPRP here?
The value was -0.297.

With RRIRLRPPRLPRPRPRPKWLPRP as the sequence, how does the “shrunken log2 fold change” value read?
The value was 0.139.

RRIRYRPPRLPRPRPRPITMPRP was tested. Which “shrunken log2 fold change” value did it give?
The value was -1.13.

For RRIRSRPPRLPRPRPRPLETPRP, which “shrunken log2 fold change” value is on record?
The value was -0.122.

How did the “shrunken log2 fold change” value turn out when RRIRKRPPRLPRPRPRPSVYPRP was run?
Its value is -0.0427.

How did the “shrunken log2 fold change” value turn out when RRIRWRPPRLPRPRPRPKTQPRP was run?
The value was 0.0326.

Which “shrunken log2 fold change” value does the source give for RRIRARPPRLPRPRPRPPPVPRP here?
Its value is 1.04.

For RRIRIRPPRLPRPRPRPMKHPRP, which “shrunken log2 fold change” value is on record?
The value was -0.224.

How did the “shrunken log2 fold change” value turn out when RRIRVRPPRLPRPRPRPRQKPRP was run?
Its value is 0.212.

How did the “shrunken log2 fold change” value turn out when RRIRQRPPRLPRPRPRPANRPRP was run?
Its value is -0.0467.

Which “shrunken log2 fold change” value does the source give for RRIRWRPPRLPRPRPRPYVPPRP here?
The value was -0.837.

For RRIRKRPPRLPRPRPRPEHAPRP, which “shrunken log2 fold change” value is on record?
Its value is 1.12.

How did the “shrunken log2 fold change” value turn out when RRIRLRPPRLPRPRPRPEMCPRP was run?
Its value is 0.0636.

How did the “shrunken log2 fold change” value turn out when RRIRFRPPRLPRPRPRPHFKPRP was run?
Its value is -0.599.

RRIRLRPPRLPRPRPRPNTQPRP was tested. Which “shrunken log2 fold change” value did it give?
The value was -0.0732.

With RRIRERPPRLPRPRPRPPGNPRP as the sequence, how does the “shrunken log2 fold change” value read?
Its value is 0.106.

With RRIRDRPPRLPRPRPRPFVPPRP as the sequence, how does the “shrunken log2 fold change” value read?
Its value is -0.0913.

RRIRKRPPRLPRPRPRPQHDPRP was tested. Which “shrunken log2 fold change” value did it give?
The value was 0.202.

Which “shrunken log2 fold change” value does the source give for RRIRARPPRLPRPRPRPDKVPRP here?
Its value is 0.0597.

With RRIRPRPPRLPRPRPRPVHAPRP as the sequence, how does the “shrunken log2 fold change” value read?
Its value is 0.441.

How did the “shrunken log2 fold change” value turn out when RRIRCRPPRLPRPRPRPTWIPRP was run?
The value was 0.24.

Which “shrunken log2 fold change” value does the source give for RRIRVRPPRLPRPRPRPWHMPRP here?
Its value is -0.672.

With RRIRIRPPRLPRPRPRPHIWPRP as the sequence, how does the “shrunken log2 fold change” value read?
The value was -0.582.

How did the “shrunken log2 fold change” value turn out when RRIRFRPPRLPRPRPRPWTPPRP was run?
The value was -0.26.

Which “shrunken log2 fold change” value does the source give for RRIRSRPPRLPRPRPRPGPSPRP here?
The value was 0.456.

How did the “shrunken log2 fold change” value turn out when RRIRPRPPRLPRPRPRPLTDPRP was run?
The value was 0.111.

Which “shrunken log2 fold change” value does the source give for RRIRHRPPRLPRPRPRPYPLPRP here?
The value was -0.641.

With RRIRCRPPRLPRPRPRPGNPPRP as the sequence, how does the “shrunken log2 fold change” value read?
The value was -0.132.

With RRIRHRPPRLPRPRPRPNGTPRP as the sequence, how does the “shrunken log2 fold change” value read?
The value was -0.297.

How did the “shrunken log2 fold change” value turn out when RRIRMRPPRLPRPRPRPGDFPRP was run?
The value was 0.215.

With RRIRWRPPRLPRPRPRPTFDPRP as the sequence, how does the “shrunken log2 fold change” value read?
Its value is 0.273.

RRIRTRPPRLPRPRPRPNKMPRP was tested. Which “shrunken log2 fold change” value did it give?
Its value is 0.0425.

How did the “shrunken log2 fold change” value turn out when RRIRIRPPRLPRPRPRPTYMPRP was run?
The value was -0.707.

How did the “shrunken log2 fold change” value turn out when RRIRKRPPRLPRPRPRPFLHPRP was run?
Its value is -0.0903.

With RRIRKRPPRLPRPRPRPFGEPRP as the sequence, how does the “shrunken log2 fold change” value read?
The value was 0.365.

How did the “shrunken log2 fold change” value turn out when RRIRDRPPRLPRPRPRPPLKPRP was run?
Its value is 0.0742.

RRIRCRPPRLPRPRPRPKVPPRP was tested. Which “shrunken log2 fold change” value did it give?
The value was -0.0562.

Which “shrunken log2 fold change” value does the source give for RRIRMRPPRLPRPRPRPSMEPRP here?
The value was 0.484.

How did the “shrunken log2 fold change” value turn out when RRIRTRPPRLPRPRPRPRQMPRP was run?
Its value is 0.641.

Which “shrunken log2 fold change” value does the source give for RRIRSRPPRLPRPRPRPDTRPRP here?
Its value is -0.337.

How did the “shrunken log2 fold change” value turn out when RRIRTRPPRLPRPRPRPCLMPRP was run?
Its value is -0.15.

For RRIRWRPPRLPRPRPRPNTNPRP, which “shrunken log2 fold change” value is on record?
Its value is -0.294.

For RRIRWRPPRLPRPRPRPYNFPRP, which “shrunken log2 fold change” value is on record?
Its value is -0.58.

How did the “shrunken log2 fold change” value turn out when RRIRPRPPRLPRPRPRPYSTPRP was run?
Its value is -0.729.

How did the “shrunken log2 fold change” value turn out when RRIRSRPPRLPRPRPRPKSYPRP was run?
The value was -0.231.

Which “shrunken log2 fold change” value does the source give for RRIRRRPPRLPRPRPRPMNEPRP here?
Its value is -0.0251.

How did the “shrunken log2 fold change” value turn out when RRIRPRPPRLPRPRPRPLFWPRP was run?
The value was 0.296.

For RRIRARPPRLPRPRPRPPLPPRP, which “shrunken log2 fold change” value is on record?
Its value is 0.762.

RRIRDRPPRLPRPRPRPLQTPRP was tested. Which “shrunken log2 fold change” value did it give?
Its value is 0.135.

With RRIRMRPPRLPRPRPRPRWLPRP as the sequence, how does the “shrunken log2 fold change” value read?
The value was 0.459.

Which “shrunken log2 fold change” value does the source give for RRIRGRPPRLPRPRPRPTPKPRP here?
Its value is 1.2.

With RRIRLRPPRLPRPRPRPLVAPRP as the sequence, how does the “shrunken log2 fold change” value read?
The value was 0.343.

For RRIRFRPPRLPRPRPRPCTTPRP, which “shrunken log2 fold change” value is on record?
The value was -0.381.

RRIRRRPPRLPRPRPRPIQWPRP was tested. Which “shrunken log2 fold change” value did it give?
Its value is -0.105.

How did the “shrunken log2 fold change” value turn out when RRIRQRPPRLPRPRPRPMIRPRP was run?
Its value is -0.0156.

How did the “shrunken log2 fold change” value turn out when RRIRYRPPRLPRPRPRPTVMPRP was run?
Its value is -0.176.

With RRIRQRPPRLPRPRPRPYWIPRP as the sequence, how does the “shrunken log2 fold change” value read?
Its value is -0.152.
